The results in this text go back to US20260242478A1 (published 2026).

In assay [1] the target is T1, Anti-CD28 Fab (SEQ ID NOs: 696, 697).
T1 construct: In the phage ELISA the Fab was biotinylated and captured on neutravidin coated plates
In words: phage ELISA; captured anti-CD28 Fab pre-incubated with CD28 antigen as competitor, anti-M13 HRP detection. (In general: ELISA stands for enzyme-linked immunosorbent assay.)
T1 sequence (VH, as listed by the source, chain 1 of 2): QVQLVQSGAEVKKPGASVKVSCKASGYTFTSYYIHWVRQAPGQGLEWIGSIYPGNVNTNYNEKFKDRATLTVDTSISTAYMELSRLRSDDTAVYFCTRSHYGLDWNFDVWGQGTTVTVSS
T1 sequence (VL, as listed by the source, chain 2 of 2): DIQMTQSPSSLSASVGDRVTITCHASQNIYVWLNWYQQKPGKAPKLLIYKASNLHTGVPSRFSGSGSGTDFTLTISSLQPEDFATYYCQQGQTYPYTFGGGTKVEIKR
Experimental: (§1) After panning, phage infected bacteria were plated out and colonies picked into 96 well blocks. Clonal phage was then amplified and separated from bacterial cells via centrifugation.
(§2) Clonal phage were harvested as crude supematants and screened via standard ELISAs. […] Prior to the addition of clonal phage, wells were incubated with blocking buffer and CD28 antigen or blocking buffer alone. Without washing or aspirating, clonal phage supematants were then added to the wells and incubated for a short time. Wells were then washed followed by detection of bound phage using a horse radish conjugated anti-M13 antibody. Clonal phage of interest were then sent for sequence analysis.

For assay [2] the target is unchanged. The assay is described as follows: phage ELISA; biotinylated anti-CD28 Fab on neutravidin plate, clonal phage supernatant, anti-M13 HRP detection.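 Also: crude supernatants of single phage clones picked after panning were screened for binding.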
Target sequence in this assay (VH, as listed by the source, chain 1 of 2): as the sequence (VH, as listed by the source, chain 1 of 2) above
Target sequence in this assay (VL, as listed by the source, chain 2 of 2): as the sequence (VL, as listed by the source, chain 2 of 2) above
Assay [3] has as its target T2, Anti-CD28 Fab (SEQ ID NOs: 696, 697).
T2 construct: In the phage ELISA the Fab was biotinylated and captured on neutravidin coated plates
The assay is described as follows: phage ELISA on captured anti-CD28 Fab, wells pre-incubated with CD28 antigen as competitor.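 Also: crude clonal phage supernatants added without washing, bound phage read out by HRP-coupled anti-M13 antibody, reference wells given blocking buffer only instead of CD28.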
T2 sequence (VH, as listed by the source, chain 1 of 2): as the sequence (VH, as listed by the source, chain 1 of 2) above
T2 sequence (VL, as listed by the source, chain 2 of 2): as the sequence (VL, as listed by the source, chain 2 of 2) above

For assay [4] the target is unchanged. The assay is described as follows: phage ELISA, clonal phage on biotinylated anti-CD28 Fab captured on neutravidin plates.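 Also: crude clonal phage supernatants added to wells pretreated with CD28 antigen or with blocking buffer only, bound phage detected by HRP-linked anti-M13 antibody.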
Target sequence in this assay (VH, as listed by the source, chain 1 of 2): as the sequence (VH, as listed by the source, chain 1 of 2) above
Target sequence in this assay (VL, as listed by the source, chain 2 of 2): as the sequence (VL, as listed by the source, chain 2 of 2) above
Experimental: as §1, §2
Assay [5] has as its target T3, Anti-CD28 Fab (SEQ ID NOs: 696, 697).
T3 construct: In the phage ELISA the Fab was biotinylated and captured on neutravidin coated plates
The assay is described as follows: phage ELISA as above with wells pre-incubated with CD28 antigen as competitor.
T3 sequence (VH, as listed by the source, chain 1 of 2): as the sequence (VH, as listed by the source, chain 1 of 2) above
T3 sequence (VL, as listed by the source, chain 2 of 2): as the sequence (VL, as listed by the source, chain 2 of 2) above
Experimental: as §1, §2

For assay [6] the target is unchanged. The assay is described as follows: phage ELISA; biotinylated anti-CD28 Fab on neutravidin plate, clonal phage supernatant, anti-M13 HRP detection.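 Also: crude supernatants of single phage clones picked after panning were screened for binding.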 This is another data set of the same source.
Target sequence in this assay (VH, as listed by the source, chain 1 of 2): as the sequence (VH, as listed by the source, chain 1 of 2) above
Target sequence in this assay (VL, as listed by the source, chain 2 of 2): as the sequence (VL, as listed by the source, chain 2 of 2) above
The target of assay [7] is Anti-CD28 Fab (SEQ ID NOs: 696, 697). The assay is described as follows: phage binding ELISA; biotinylated Fab on neutravidin plate, anti-M13 HRP detection.
Experimental: as §1, §2
Assay [8] has the same target. In words: phage binding ELISA on Fab coated plate; CD28 antigen as competitor.
Experimental: as §1, §2

B1: Phage-1065 (peptide)
peptide: YCDGHSPEHMGKCL
notes: Clonal phage supernatant; not shown: fused to the pIII filament protein of the bacteriophage
As to B1, in assay [1], the “Anti-CD28 Fab signal in the presence of CD28 (phage binding ELISA)” value was 0.09. Further, the “Anti-CD28 Fab signal (phage binding ELISA)” value in assay [2] was 1.4.
Consider YCDGHTPEYMWKCL [Phage-1054], for which, in assay [3], the “Anti-CD28 Fab signal in the presence of CD28 (phage binding ELISA)” value was found to be 0.06. The “Anti-CD28 Fab signal (phage binding ELISA)” value in assay [4] worked out at 1.43.
On to YCEGHAVEYMAKCL (Tested as clonal phage supernatant) [Phage-1043], for which the “Anti-CD28 Fab signal in the presence of CD28 (phage binding ELISA)” value in assay [5] came out at 0.07. Besides, the “Anti-CD28 Fab signal (phage binding ELISA)” value in assay [6] was 1.44.

B2: Phage-1070 (peptide)
peptide: YCDGHSLEYMLKCL
notes: as for B1
In the case of B2, in assay [1], the “Anti-CD28 Fab signal in the presence of CD28 (phage binding ELISA)” value is 0.07. The “Anti-CD28 Fab signal (phage binding ELISA)” value in assay [2] was 1.39.
Take YCQGHIEPYLAKCL (Tested as clonal phage supernatant) [Phage-1036]: the “Anti-CD28 Fab signal in the presence of CD28 (phage binding ELISA)” value in assay [5] turned out to be 0.05. Besides, the “Anti-CD28 Fab signal (phage binding ELISA)” value in assay [6] is 1.46.
For YCEGHLPQYMTKCI (Tested as clonal phage supernatant) [Phage-1040], the “Anti-CD28 Fab signal in the presence of CD28 (phage binding ELISA)” value in assay [5] was 0.08. Besides, in assay [6], the “Anti-CD28 Fab signal (phage binding ELISA)” value is 1.44.

B3: Phage-1066 (peptide)
peptide: YCDGHDARYMEKCL
notes: as for B1
Regarding B3, in assay [1], the “Anti-CD28 Fab signal in the presence of CD28 (phage binding ELISA)” value turned out to be 0.06. Besides, the “Anti-CD28 Fab signal (phage binding ELISA)” value in assay [2] stood at 1.4.
Turning to YCDGHSLQYMSKCL (Tested as clonal phage supernatant) [Phage-1039], in assay [5], the “Anti-CD28 Fab signal in the presence of CD28 (phage binding ELISA)” value is 0.06. The “Anti-CD28 Fab signal (phage binding ELISA)” value in assay [6] is 1.45.
Take YCDGHSLEYIDKCM [Phage-1057]: the “Anti-CD28 Fab signal in the presence of CD28 (phage binding ELISA)” value in assay [3] was 0.09. In addition, the “Anti-CD28 Fab signal (phage binding ELISA)” value in assay [4] turned out to be 1.42.
Turning to YCEGHLPIYMEKCL (Tested as clonal phage supernatant) [Phage-1044], the “Anti-CD28 Fab signal in the presence of CD28 (phage binding ELISA)” value in assay [5] came to 0.07. For the same molecule, in assay [6], the “Anti-CD28 Fab signal (phage binding ELISA)” value worked out at 1.44.
In the same order, the values of YCEGHLAIYQKKCL (Tested as clonal phage supernatant) [Phage-1042] are 0.06 and 1.44.

B4: Phage-1072 (peptide)
peptide: YCDGHNWEYMEKCL
notes: as for B1
As to B4, in assay [1], the “Anti-CD28 Fab signal in the presence of CD28 (phage binding ELISA)” value came to 0.05. For the same molecule, the “Anti-CD28 Fab signal (phage binding ELISA)” value in assay [2] worked out at 1.38.
Consider YCQGHSPNYITKCF [Phage-1058], for which the “Anti-CD28 Fab signal in the presence of CD28 (phage binding ELISA)” value in assay [3] was 0.06. Also, the “Anti-CD28 Fab signal (phage binding ELISA)” value in assay [4] came out at 1.41.
Turning to YCDGHLLEYMSKCL [Phage-1032], in assay [7], the “Anti-CD28 Fab (SEQ ID NOs: 696, 697) signal” value stood at 1.46. Besides, the “Anti-CD28 Fab signal in the presence of CD28” value in assay [8] is 0.09.
Regarding YCDGHLPEYMNQCL (Tested as clonal phage supernatant) [Phage-1047], in assay [5], the “Anti-CD28 Fab signal in the presence of CD28 (phage binding ELISA)” value came to 0.07. Further, the “Anti-CD28 Fab signal (phage binding ELISA)” value in assay [6] came out at 1.44.
Take YCEGHSMEYIQKCL (Tested as clonal phage supernatant) [Phage-1045]: the “Anti-CD28 Fab signal in the presence of CD28 (phage binding ELISA)” value in assay [5] turned out to be 0.07. The “Anti-CD28 Fab signal (phage binding ELISA)” value in assay [6] was determined as 1.44.
As to YCDGHAEEYMAKCL (Tested as clonal phage supernatant) [Phage-1038], the “Anti-CD28 Fab signal in the presence of CD28 (phage binding ELISA)” value in assay [5] was determined as 0.06. Besides, in assay [6], the “Anti-CD28 Fab signal (phage binding ELISA)” value was determined as 1.45.
For YCVGHLPQYMQKCL [Phage-1049], the “Anti-CD28 Fab signal in the presence of CD28 (phage binding ELISA)” value in assay [3] came out at 0.06. For the same molecule, in assay [4], the “Anti-CD28 Fab signal (phage binding ELISA)” value stood at 1.43.
Turning to YCDGHSHEYMQKCL [Phage-1061], in assay [3], the “Anti-CD28 Fab signal in the presence of CD28 (phage binding ELISA)” value stood at 0.06. Also, the “Anti-CD28 Fab signal (phage binding ELISA)” value in assay [4] turned out to be 1.41.
For YCDGHSLEYMVKCL [Phage-1033], the “Anti-CD28 Fab (SEQ ID NOs: 696, 697) signal” value in assay [7] came to 1.46. Moreover, the “Anti-CD28 Fab signal in the presence of CD28” value in assay [8] turned out to be 0.06.
Consider YCDGHLPEYIAKCQ [Phage-1050], for which the “Anti-CD28 Fab signal in the presence of CD28 (phage binding ELISA)” value in assay [3] was determined as 0.07. For the same molecule, the “Anti-CD28 Fab signal (phage binding ELISA)” value in assay [4] came out at 1.43.
As to YCDGHLAIYMWKCL (Tested as clonal phage supernatant) [Phage-1037], in assay [5], the “Anti-CD28 Fab signal in the presence of CD28 (phage binding ELISA)” value came out at 0.09. Further, the “Anti-CD28 Fab signal (phage binding ELISA)” value in assay [6] came out at 1.45.

B5: Phage-1063 (peptide)
peptide: YCDGHLMEYKAKCL
notes: as for B1
Consider B5, for which the “Anti-CD28 Fab signal in the presence of CD28 (phage binding ELISA)” value in assay [1] amounted to 0.06. Moreover, the “Anti-CD28 Fab signal (phage binding ELISA)” value in assay [2] was found to be 1.41.
On to YCDGHSPAFIQKCL [Phage-1056], for which the “Anti-CD28 Fab signal in the presence of CD28 (phage binding ELISA)” value in assay [3] came out at 0.08. Also, in assay [4], the “Anti-CD28 Fab signal (phage binding ELISA)” value came out at 1.42.
For YCEGHTPVYMPKCL [Phage-1035], the “Anti-CD28 Fab (SEQ ID NOs: 696, 697) signal” value in assay [7] amounted to 1.46. For the same molecule, the “Anti-CD28 Fab signal in the presence of CD28” value in assay [8] was 0.06.
Regarding YCDGHLDEYMLKCL [Phage-1053], in assay [3], the “Anti-CD28 Fab signal in the presence of CD28 (phage binding ELISA)” value was determined as 0.06. The “Anti-CD28 Fab signal (phage binding ELISA)” value in assay [4] worked out at 1.43.
Regarding YCEGHSLEHIAKCL [Phage-1034], the “Anti-CD28 Fab (SEQ ID NOs: 696, 697) signal” value in assay [7] turned out to be 1.46. The “Anti-CD28 Fab signal in the presence of CD28” value in assay [8] was 0.07.
YCEGHSQEYMAKCL (Tested as clonal phage supernatant) [Phage-1046]: the “Anti-CD28 Fab signal in the presence of CD28 (phage binding ELISA)” value in assay [5] was determined as 0.06. The “Anti-CD28 Fab signal (phage binding ELISA)” value in assay [6] is 1.44.
As for YCDGHAPEYLGKCL [Phage-1059], the “Anti-CD28 Fab signal in the presence of CD28 (phage binding ELISA)” value in assay [3] is 0.06. Further, in assay [4], the “Anti-CD28 Fab signal (phage binding ELISA)” value was 1.41.
For the molecule YCAGHLPQYIQKCL (Tested as clonal phage supernatant) [Phage-1041], the “Anti-CD28 Fab signal in the presence of CD28 (phage binding ELISA)” value in assay [5] was 0.07. The “Anti-CD28 Fab signal (phage binding ELISA)” value in assay [6] was 1.44.
For YCEGHSQQYMQKCL [Phage-1055], the “Anti-CD28 Fab signal in the presence of CD28 (phage binding ELISA)” value in assay [3] is 0.08. Also, the “Anti-CD28 Fab signal (phage binding ELISA)” value in assay [4] turned out to be 1.42.

B6: Phage-1067 (peptide)
peptide: YCDGHSPEYMQKCL
notes: as for B1
As for B6, the “Anti-CD28 Fab signal in the presence of CD28 (phage binding ELISA)” value in assay [1] is 0.53. In addition, the “Anti-CD28 Fab signal (phage binding ELISA)” value in assay [2] was 1.4.

B7: Phage-1064 (peptide)
peptide: YCEGHSAEYIAKCL
notes: as for B1
For the molecule B7, the “Anti-CD28 Fab signal in the presence of CD28 (phage binding ELISA)” value in assay [1] stood at 0.09. Also, the “Anti-CD28 Fab signal (phage binding ELISA)” value in assay [2] came out at 1.41.

B8: Phage-1062 (peptide)
peptide: YCAGHSAEYMSKCL
notes: as for B1
Consider B8, for which the “Anti-CD28 Fab signal in the presence of CD28 (phage binding ELISA)” value in assay [1] was 0.07. In addition, the “Anti-CD28 Fab signal (phage binding ELISA)” value in assay [2] came to 1.41.
As to YCDGHNFQYMEKCL (Tested as clonal phage supernatant) [Phage-1048], in assay [5], the “Anti-CD28 Fab signal in the presence of CD28 (phage binding ELISA)” value turned out to be 0.06. For the same molecule, in assay [6], the “Anti-CD28 Fab signal (phage binding ELISA)” value was determined as 1.44.
As for YCAGHAEEYLEKCL [Phage-1060], the “Anti-CD28 Fab signal in the presence of CD28 (phage binding ELISA)” value in assay [3] stood at 0.15. Further, the “Anti-CD28 Fab signal (phage binding ELISA)” value in assay [4] came out at 1.41.
With YCDGHSLEYIEKCL [Phage-1051], in assay [3], the “Anti-CD28 Fab signal in the presence of CD28 (phage binding ELISA)” value amounted to 0.06. Also, the “Anti-CD28 Fab signal (phage binding ELISA)” value in assay [4] worked out at 1.43.

B9: Phage-1071 (peptide)
peptide: YCEGHHPWYVQKCL
notes: as for B1
B9: the “Anti-CD28 Fab signal in the presence of CD28 (phage binding ELISA)” value in assay [1] was 0.07. Further, the “Anti-CD28 Fab signal (phage binding ELISA)” value in assay [2] was found to be 1.39.
For YCLGHSWPYIHKCY [Phage-1052], in assay [3], the “Anti-CD28 Fab signal in the presence of CD28 (phage binding ELISA)” value was determined as 0.07. In addition, the “Anti-CD28 Fab signal (phage binding ELISA)” value in assay [4] worked out at 1.43.

B10: Phage-1068 (peptide)
peptide: YCNGHLPEYMSKCI
notes: as for B1
Take B10: the “Anti-CD28 Fab signal in the presence of CD28 (phage binding ELISA)” value in assay [1] is 0.07. Further, the “Anti-CD28 Fab signal (phage binding ELISA)” value in assay [2] worked out at 1.4.

B11: Phage-1069 (peptide)
peptide: YCSGHLPEYMDKCL
notes: as for B1
On to B11, for which the “Anti-CD28 Fab signal in the presence of CD28 (phage binding ELISA)” value in assay [1] was found to be 0.07. In assay [2], the “Anti-CD28 Fab signal (phage binding ELISA)” value turned out to be 1.39.
